Assay results reported in paper PMC2724296 (Nucleic Acids Research, 2009).

T1: ST1710 (Sulfurisphaera tokodaii, UniProt Q96ZY1)
T1 sequence (Q96ZY1 1-146): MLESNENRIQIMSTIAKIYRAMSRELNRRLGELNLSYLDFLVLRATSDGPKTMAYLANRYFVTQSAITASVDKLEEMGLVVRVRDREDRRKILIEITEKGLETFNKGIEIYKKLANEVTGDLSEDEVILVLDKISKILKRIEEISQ

T2: ST1710 (Sulfolobus tokodaii strain 7, UniProt Q96ZY1 1-146)
T2 sequence: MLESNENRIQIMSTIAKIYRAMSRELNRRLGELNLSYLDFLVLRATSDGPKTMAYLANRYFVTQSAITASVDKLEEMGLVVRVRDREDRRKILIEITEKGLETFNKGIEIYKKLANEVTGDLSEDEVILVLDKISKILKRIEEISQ

T3: ST1710 R89A (Sulfolobus tokodaii strain 7, UniProt Q96ZY1 1-146, R89A)
T3 sequence: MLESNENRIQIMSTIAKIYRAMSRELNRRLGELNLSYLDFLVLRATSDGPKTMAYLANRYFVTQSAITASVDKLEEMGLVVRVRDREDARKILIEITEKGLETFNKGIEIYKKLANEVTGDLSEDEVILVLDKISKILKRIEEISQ

T4: ST1710 R90A (Sulfolobus tokodaii strain 7, UniProt Q96ZY1 1-146, R90A)
T4 sequence: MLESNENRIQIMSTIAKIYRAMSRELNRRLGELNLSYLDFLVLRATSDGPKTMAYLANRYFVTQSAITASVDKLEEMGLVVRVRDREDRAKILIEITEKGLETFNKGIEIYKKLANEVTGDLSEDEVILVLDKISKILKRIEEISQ

T5: ST1710 K91A (Sulfolobus tokodaii strain 7, UniProt Q96ZY1 1-146, K91A)
T5 sequence: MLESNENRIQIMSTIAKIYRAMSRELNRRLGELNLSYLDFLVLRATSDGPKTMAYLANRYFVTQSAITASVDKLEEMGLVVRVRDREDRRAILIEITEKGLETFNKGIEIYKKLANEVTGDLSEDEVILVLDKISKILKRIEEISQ


What was measured:
[1] = target: T1, ST1710; experiment: differential scanning calorimetry; type: binding
[2] = target: T2, ST1710; experiment: crystal structure
[3] = target: T3, ST1710 R89A; experiment: EMSA
[4] = target: T4, ST1710 R90A; experiment: EMSA
[5] = target: T5, ST1710 K91A; experiment: EMSA

Row | Kd [1] | Molecule | binding result [2] | binding result [3] | binding result [4] | binding result [5]
1 | 20 ± 4.9 mM | O=C(O)c1ccccc1O [sodium salicylate] |  |  |  | 
2 |  | 30-mer putative st1710 promoter duplex (dsDNA) DNA 1: AATAATGTCATTGTTAACAATAGCAAAAAT DNA 2: ATTTTTGCTATTGTTAACAATGACATTATT | binds | no binding | no binding | no binding
